{
  "source": "patent US20090004680A1",
  "target": "Mouse synaptosomes (BoNT/A acceptor on a mouse synaptosome preparation)",
  "data": [
    {"substance": "Inactivated BoNT/A (toxoid) (from UniProt P0DPI0 2-1296)", "values": [
      {"measurement": "maximum percent inhibition", "value": 98, "unit": "%"}
    ]}
  ]
}
